Assay [1] deals with T1, human CD3 on cells (HPB-ALL cells, primary human T cells) (human, UniProt P07766 23-207).
T1 construct: whole, on cells; only the epsilon chain is written
Kind of assay: flow cytometry on CD4+ T cells in human PBMCs, anti-human IgG PE secondary.

Assay [2] has as its target T2, human CD3 on primary human CD38-negative T cells (human, UniProt P07766 23-207; P04234 22-171; P09693 23-182).
T2 construct: whole, on cells; Native CD3 within the TCR/CD3 complex on isolated human T cells, gated CD38-negative
Kind of assay: flow cytometry on primary human CD38-negative T cells, one-site binding fit. (In flow cytometry, cells or beads pass a laser one at a time.)

The target of assay [3] is T2, human CD3 on primary human …. Kind of assay: flow cytometry on CD38-negative primary human T cells, RFI after subtraction of the negative control, six donors.
The target in assay [4] is T3, human CD3 on primary human T cells (human, UniProt P07766 23-207; P04234 22-171; P09693 23-182; P20963 22-164).
T3 construct: whole, on cells; Endogenous CD3 complex on isolated human T cells, gated CD38-negative; also called CD3-expressing T cells; human CD38 negative T cells
The assay is described as follows: flow cytometry on isolated human primary T cells gated CD38-negative; one-site binding fit.

The target of assay [5] is T4, human BCMA on multiple myeloma cells (human, UniProt Q02223 1-184).
T4 construct: whole, on cells; Here the protein is the cell lines' own; also called B-cell maturation antigen; TNFRSF17
T4 sequence (looked up): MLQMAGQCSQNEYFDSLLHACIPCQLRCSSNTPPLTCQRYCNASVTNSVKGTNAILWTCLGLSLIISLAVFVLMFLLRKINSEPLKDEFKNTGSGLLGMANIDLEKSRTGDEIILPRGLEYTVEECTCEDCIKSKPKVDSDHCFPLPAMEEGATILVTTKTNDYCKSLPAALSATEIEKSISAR
The assay is described as follows: flow cytometry on NCI-H929 WT cells; one-site binding fit.

Assay [6] has as its target T4, human BCMA on multiple myeloma cells. Kind of assay: flow cytometry on NCI-H929 CD38 KO cells; one-site binding fit.
The target is the same in assay [7]. Kind of assay: flow cytometry on KMS-12-BM cells; one-site binding fit.
Assay [8] has the same target. Kind of assay: flow cytometry on KMS-12-BM cells (BCMA+CD38+), anti-human IgG secondary, RFI.
Assay [9] shares this target. Kind of assay: flow cytometry on NCI-H929 CD38 KO cells (BCMA++CD38-), anti-human IgG secondary, RFI.
For assay [10] the target is unchanged. The assay is described as follows: flow cytometry on NCI-H929 cells (BCMA++CD38++), anti-human IgG secondary, RFI.
For assay [11], the target named is T5, human CD38 on multiple myeloma cells (human, UniProt P28907 1-300).
T5 construct: whole, on cells; Here the protein is the cell lines' own
Kind of assay: flow cytometry on NCI-H929 BCMA KO cells (BCMA-CD38++), anti-human IgG secondary, RFI.

For assay [12], the target named is recombinant cynomolgus monkey BCMA protein (Acrobiosystems BCA-C52H7) (cynomolgus monkey, UniProt A0A2K5UD97 1-53). The assay is described as follows: SPR, Fab as analyte, immobilised cynomolgus BCMA.
The target of assay [13] is T6, recombinant human BCMA protein (Acrobiosystems BCA-H522y) (human, UniProt Q02223 1-54).
T6 construct: bought protein
T6 sequence (looked up): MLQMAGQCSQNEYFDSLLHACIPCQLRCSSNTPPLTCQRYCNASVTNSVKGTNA
Kind of assay: SPR, Fab as analyte, immobilised human BCMA, 1:1 Langmuir. In general terms: SPR reads the build-up and loss of mass on a sensor chip optically.

Assay [14] concerns the target T1, human CD3 on cells (HPB-ALL cells, …). The assay is described as follows: flow cytometry, human CD4+ T cells.

T1 sequence (P07766 23-207): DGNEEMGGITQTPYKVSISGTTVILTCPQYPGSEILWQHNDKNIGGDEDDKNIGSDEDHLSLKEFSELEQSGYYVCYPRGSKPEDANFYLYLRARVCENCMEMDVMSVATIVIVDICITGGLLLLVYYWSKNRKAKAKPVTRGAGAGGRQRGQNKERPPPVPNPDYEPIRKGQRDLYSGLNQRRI
T2 sequence (P07766 23-207, chain 1 of 3): as the sequence (P07766 23-207) above
T2 sequence (P04234 22-171, chain 2 of 3): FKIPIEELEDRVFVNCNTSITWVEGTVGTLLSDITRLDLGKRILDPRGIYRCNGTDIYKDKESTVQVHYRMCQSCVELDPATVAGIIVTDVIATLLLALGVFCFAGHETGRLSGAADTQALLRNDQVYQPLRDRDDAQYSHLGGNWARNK
T2 sequence (P09693 23-182, chain 3 of 3): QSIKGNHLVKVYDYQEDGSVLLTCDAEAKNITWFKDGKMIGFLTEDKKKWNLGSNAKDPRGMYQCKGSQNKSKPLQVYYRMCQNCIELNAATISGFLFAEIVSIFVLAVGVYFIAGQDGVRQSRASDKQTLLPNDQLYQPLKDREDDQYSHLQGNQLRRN
Chain of recombinant cynomolgus monkey BCMA protein (Acrobiosystems BCA-C52H7) (A0A2K5UD97 entry or part of it): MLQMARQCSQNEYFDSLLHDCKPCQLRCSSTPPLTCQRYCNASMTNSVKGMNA
T3 sequence (P07766 23-207, chain 1 of 4): as the sequence (P07766 23-207) above
T3 sequence (P04234 22-171, chain 2 of 4): as the sequence (P04234 22-171, chain 2 of 3) above
T3 sequence (P09693 23-182, chain 3 of 4): as the sequence (P09693 23-182, chain 3 of 3) above
T3 sequence (P20963 22-164, chain 4 of 4): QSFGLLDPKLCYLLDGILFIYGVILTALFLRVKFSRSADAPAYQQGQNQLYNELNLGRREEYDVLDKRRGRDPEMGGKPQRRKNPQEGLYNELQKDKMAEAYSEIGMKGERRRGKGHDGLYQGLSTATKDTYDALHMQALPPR

B1: Anti-CD3-UCP07-B2 IgG1LALA (antibody, V domains shown)
VH: EVQLVESGGGLVKPGGSLRLSCAASGFDFGKAWMAWVRQAPGKGLEWVGRIKSDFKGGDTIYAAPVKGRFTISRDDSKNTLYLQMNSLKTEDTAVYYCARGRSRGVSEFDYWGQGTLVTVSS
VL: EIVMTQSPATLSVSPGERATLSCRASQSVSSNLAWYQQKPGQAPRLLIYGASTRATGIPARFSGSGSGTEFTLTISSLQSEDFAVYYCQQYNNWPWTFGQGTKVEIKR
notes: IgG1 LALA
For the molecule B1, the binding result in [1] is reported as “no binding (tested: 800 nM)”.

B2: TNB-F2B BEAT Fc (bispecific antibody, human IgG1, kappa, L234A L235A)
chain 1: EVQLVESGGGLVQPGRSLRLSCAASGFTFDDYAMHWVRQAPGKGLEWVSGISWNSGSIGYADSVKGRFTISRDNAKNSLYLQMNSLRAEDTALYYCAKDSRGYGDYRLGGAYWGQGTLVTVSSASTKGPSVFPLAPSSKSTSGGTAALGCLVKDYFPEPVTVSWNSGALTSGVHTFPAVLQSSGLYSLSSVVTVPSSSLGTQTYICNVNHKPSNTKVDKKVEPKSCDKTHTCPPCPAPEAAGGPSVFLFPPKPKDTLMISRTPEVTCVVVDVSHEDPEVKFNWYVDGVEVHNAKTKPREEQYNSTYRVVSVLTVLHQDWLNGKEYKCKVSNKALPAPIEKTISKAKGQPREPAVYTLPPSREEMTKNQVKLVCLVTGFYPSDIAVEWESSGQPENNYYTTPPMLDSDGSFSLVSWLNVDKSRWQQGNIFSCSVMHEALHNRFTQKSLSLSPG
chain 2: EVQLLESGGGLVQPGGSLRLSCAASGFTVSSYGMSWVRQAPGKGPEWVSGIRGSDGSTYYADSVKSRFTISRDNSKNTLYLQMNSLRAEDTAVYYCAKQGENDGPFDHRGQGTLVTVSSGGGGSEVQLLESGGGLVQPGGSLRLSCAASGFTVSSYGMSWVRQAPGKGPEWVSGIRGSDGSTYYADSVKSRFTISRDNSKNTLYLQMNSLRAEDTAVYYCAKQGENDGPFDHRGQGTLVTVSSGGGGTDKTHTCPPCPAPEAAGGPSVFLFPPKPKDTLMISRTPEVTCVVVDVSHEDPEVKFNWYVDGVEVHNAKTKPREEQYNSTYRVVSVLTVLHQDWLNGKEYKCKVSNKALPAPIEKTISKAKGQPREPEVATFPPSRDELTKNQVTLVCLVTGFYPSDIAVEWESNGQPENNYKTDPPLLESQGSFALSSRLRVDKSRWQQGNVFSCSVMHEALHNHYTQKSLSLSPG
light: not shown
notes: CD3 Fab (TNB-F2B) x BCMA dAb-dAb (TNB-BCMA) on a silenced (LALA) BEAT Fc; also called CD3xBCMA benchmark
With B2, in [2], the “Max binding (RFI)” value came out at 60 RFI. In assay [3], the binding result is on record as “no binding (tested: 800 nM)”.

B3: Anti-CD3-UCP07-F3 IgG1LALA (antibody, V domains shown)
VH: EVQLLESGGGLVQPGGSLRLSCAASGFNFSGHAVGWVRQAPGKGLEWVSAISQNGGYTLYADSVKGRFTISRDNSKNTLYLQMNSLRAEDTAVYYCARAASYGLDYALDIWGQGTLVTVSS
VL: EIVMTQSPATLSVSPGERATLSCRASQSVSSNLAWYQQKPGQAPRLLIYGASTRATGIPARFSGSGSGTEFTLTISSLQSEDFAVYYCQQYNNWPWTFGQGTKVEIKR
notes: IgG1 LALA
Regarding B3, the binding result in [1] is reported as “no binding (tested: 800 nM)”.

B4: alnuctamab (bispecific antibody)
chain 1: EVQLLESGGGLVQPGGSLRLSCAASGFTFSDNAMGWVRQAPGKGLEWVSAISGPGSSTYYADSVKGRFTISRDNSKNTLYLQMNSLRAEDTAVYYCAKVLGWFDYWGQGTLVTVSSASTKGPSVFPLAPSSKSTSGGTAALGCLVEDYFPEPVTVSWNSGALTSGVHTFPAVLQSSGLYSLSSVVTVPSSSLGTQTYICNVNHKPSNTKVDEKVEPKSCDKTHTCPPCPAPEAAGGPSVFLFPPKPKDTLMISRTPEVTCVVVDVSHEDPEVKFNWYVDGVEVHNAKTKPREEQYNSTYRVVSVLTVLHQDWLNGKEYKCKVSNKALGAPIEKTISKAKGQPREPQVCTLPPSRDELTKNQVSLSCAVKGFYPSDIAVEWESNGQPENNYKTTPPVLDSDGSFFLVSKLTVDKSRWQQGNVFSCSVMHEALHNHYTQKSLSLSPGK
chain 2: EIVLTQSPGTLSLSPGERATLSCRASQSVSDEYLSWYQQKPGQAPRLLIHSASTRATGIPDRFSGSGSGTDFTLAISRLEPEDFAVYYCQQYGYPPDFTFGQGTKVEIKRTVAAPSVFIFPPSDRKLKSGTASVVCLLNNFYPREAKVQWKVDNALQSGNSQESVTEQDSKDSTYSLSSTLTLSKADYEKHKVYACEVTHQGLSSPVTKSFNRGEC
chain 3: not shown
chain 4: EVQLLESGGGLVQPGGSLRLSCAASGFTFSTYAMNWVRQAPGKGLEWVSRIRSKYNNYATYYADSVKGRFTISRDDSKNTLYLQMNSLRAEDTAVYYCVRHGNFGNSYVSWFAYWGQGTLVTVSSASVAAPSVFIFPPSDEQLKSGTASVVCLLNNFYPREAKVQWKVDNALQSGNSQESVTEQDSKDSTYSLSSTLTLSKADYEKHKVYACEVTHQGLSSPVTKSFNRGEC
Consider B4, for which the Kd – broadly, a measure of binding affinity in units of concentration – was 252 nM in [4], 6 nM in assay [5], 8.1 nM in assay [6] and 3.9 nM in assay [7]. Further, the 50% effective concentration (EC50 (read off the curve)) (as a rule, the concentration that produces a half-maximal response) in assay [8] was about 3 nM; in [9], about 7 nM; in assay [10] it was about 6 nM.

B5: 83A10-TCBcv (bispecific antibody, human IgG1, kappa, L234A L235A)
chain 1: not shown
chain 2: not shown
chain 3: not shown
chain 4: EVQLLESGGGLVQPGGSLRLSCAASGFTFSTYAMNWVRQAPGKGLEWVSRIRSKYNNYATYYADSVKGRFTISRDDSKNTLYLQMNSLRAEDTAVYYCVRHGNFGNSYVSWFAYWGQGTLVTVSSASVAAPSVFIFPPSDEQLKSGTASVVCLLNNFYPREAKVQWKVDNALQSGNSQESVTEQDSKDSTYSLSSTLTLSKADYEKHKVYACEVTHQGLSSPVTKSFNRGEC
notes: Comparator CD3xBCMA bispecific antibody; also called CD3 x BCMA benchmark
In the case of B5, the Kd in assay [4] was 155 nM. Further, the binding result in [11] is listed as “no binding (tested: 800 nM)”.

B6: 83A10-TCBcv (bispecific antibody, human IgG1, kappa, L234A L235A)
chain 1: not shown
chain 2: not shown
chain 3: not shown
chain 4: EVQLLESGGGLVQPGGSLRLSCAASGFTFSTYAMNWVRQAPGKGLEWVSRIRSKYNNYATYYADSVKGRFTISRDDSKNTLYLQMNSLRAEDTAVYYCVRHGNFGNSYVSWFAYWGQGTLVTVSSASVAAPSVFIFPPSDEQLKSGTASVVCLLNNFYPREAKVQWKVDNALQSGNSQESVTEQDSKDSTYSLSSTLTLSKADYEKHKVYACEVTHQGLSSPVTKSFNRGEC
notes: CD3xBCMA bispecific comparator; also called EM-801; CD3xBCMA benchmark
Take B6: in [2], the Kd was found to be 80 nM and the “Max binding (RFI)” value came out at 103000 RFI.

B7: anti-BCMA-UCP01-E8 FAB (Fab, V domains shown)
VH: QVQLVQSGAEVKKPGSSVKVSCKASGGQFSVQFISWVRQAPGQGLEWMGGIIPTSGDTYYAQKFQGRVTITADESTSTAYMELSSLRSEDTAVYYCARSVVDLSYVTGYYYMDIWGQGTLVTVSS
VL: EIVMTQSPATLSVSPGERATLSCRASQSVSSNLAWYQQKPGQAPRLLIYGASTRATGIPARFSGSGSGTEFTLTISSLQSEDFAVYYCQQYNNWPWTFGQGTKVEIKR
notes: Fab
Take B7: the binding result in [12] is “no binding”. Moreover, the dissociation constant (Kd) in assay [13] came out at 1740 nM.

B8: anti-BCMA-UCP01-F9 FAB (Fab, V domains shown)
VH: QVQLVQSGAEVKKPGSSVKVSCKASGYKFRTYAINWVRQAPGQGLEWMGGIVPISGETFYAQKFQGRVTITADESTSTAYMELSSLRSEDTAVYYCAREDYSDYWGQGTLVTVSS
VL: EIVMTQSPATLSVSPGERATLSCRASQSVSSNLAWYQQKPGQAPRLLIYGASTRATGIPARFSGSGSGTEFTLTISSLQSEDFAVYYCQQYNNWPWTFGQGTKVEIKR
notes: Fab
B8: the binding result in assay [12] is reported as “no binding”. Also, the Kd in [13] is 617 nM.

B9: Anti-CD3-UCP07-A4 IgG1LALA (antibody, V domains shown)
VH: EVQLLESGGGLVQPGGSLRLSCAASGSTFRRYVMGWVRQAPGKGLEWVSAISQQGGYTYYADSVKGRFTISRDNSKNTLYLQMNSLRAEDTAVYYCARSSSSAFDVWGQGTLVTVSS
VL: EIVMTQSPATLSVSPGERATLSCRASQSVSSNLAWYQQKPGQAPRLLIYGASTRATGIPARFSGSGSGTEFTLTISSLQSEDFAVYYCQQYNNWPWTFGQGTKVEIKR
notes: IgG1 LALA
On to B9, for which the binding result in assay [1] is listed as “no binding (tested: 800 nM)”.

B10: Anti-CD3-UCP06-C1 IgG1LALA (antibody, V domains shown)
VH: QVQLVQSGAEVKKPGSSVKVSCKASGGKFSRYAISWVRQAPGQGLEWMGGIIPKGGYAEYAQKFQGRVTITADESTSTAYMELSSLRSEDTAVYYCARYGYSLYMDIWGQGTLVTVSS
VL: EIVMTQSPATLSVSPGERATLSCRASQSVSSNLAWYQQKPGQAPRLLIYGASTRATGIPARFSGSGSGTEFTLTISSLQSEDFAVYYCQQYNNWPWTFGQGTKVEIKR
notes: IgG1 LALA; also called anti-CD3-C1
Take B10: the “MFI at 800 nM” value in assay [14] amounted to 45200 MFI. Further, the “EC50 (read off the curve)” value in assay [1] is about 40 nM.

B11: anti-BCMA-PP02-C2 FAB (Fab, V domains shown)
VH: QVQLVQSGAEVKKPGSSVKVSCKASGGHFSSYAISWVRQAPGQGLEWMGGIIPQHGVPSYAQKFQGRVTITADESTSTAYMELSSLRSEDTAVYYCARVLITVDGSYGGFDYWGQGTLVTVSS
VL: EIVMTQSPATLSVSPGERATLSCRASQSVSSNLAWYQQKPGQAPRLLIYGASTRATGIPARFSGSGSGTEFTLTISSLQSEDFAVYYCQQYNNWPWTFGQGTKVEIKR
notes: Fab
For B11, the binding result in assay [12] was “no binding”. Moreover, the equilibrium dissociation constant (Kd) in assay [13] was determined as 915 nM.

Values taken from patent US20240132615A1 (ICHNOS SCIENCES, published 2024).
